According to paper PMC11467180:

Target: rA3GR8/E259A (Macaca mulatta (rhesus macaque), UniProt M1GSK9 1-138+=AEAG+147-383, E259A;internal_change)
Test: EMSA

B1: GA-DNA 10 nt (ssDNA)
DNA: TTTTGATTTT
- Kd: 473 ± 95 nM

B2: AA-DNA 10 nt (ssDNA)
DNA: TTTTAATTTT
- Kd: 318 ± 64 nM
